Experimental data from patent US20180214548A1 (SHANGHAI YUNYI HEALTHCARE AND TECHNOLOGY, published 2018).

T1: B7-1 (human, UniProt P33681 35-242)
T1 sequence (looked up): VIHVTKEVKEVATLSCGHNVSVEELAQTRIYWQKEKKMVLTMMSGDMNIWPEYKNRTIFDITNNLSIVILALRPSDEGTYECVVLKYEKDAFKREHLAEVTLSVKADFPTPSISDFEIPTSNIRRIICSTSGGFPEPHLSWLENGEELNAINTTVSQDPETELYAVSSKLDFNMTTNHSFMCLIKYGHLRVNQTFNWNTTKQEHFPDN

T2: CTLA4 (human, UniProt P16410 37-162, limits assumed)
T2 sequence (looked up): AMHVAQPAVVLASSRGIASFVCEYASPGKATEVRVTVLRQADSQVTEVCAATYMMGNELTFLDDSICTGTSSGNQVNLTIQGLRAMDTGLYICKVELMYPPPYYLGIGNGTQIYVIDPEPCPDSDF

T3: ICOS (human, UniProt Q9Y6W8 21-140, limits assumed)
T3 sequence (looked up): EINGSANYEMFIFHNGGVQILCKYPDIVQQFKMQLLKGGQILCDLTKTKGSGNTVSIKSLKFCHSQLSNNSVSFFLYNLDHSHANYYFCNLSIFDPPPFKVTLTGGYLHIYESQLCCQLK

B1: chimeric anti-PD-1 antibody 32B5C7 (antibody, V domains shown)
VH: EVQLLESGGGLVQPGGSLRLSCAASGFTFSSYAMSWVRQAPGKGLEWVSTISGSGGTTYYADSVKGRFTISRDNSKNTLYLQMNSLRAEDTAVYYCTLTGDPDYWGQGTLVTVSS
VL: EIVLTQSPATLSLSPGERATLSCRASQSVSSYLAWYQQKPGQAPRLLIYDASKRATGIPARFSGSGSGTDFTLTISSLEPEDFAVYYCQQRNNWPLTFGGGTKVEIK
notes: Purified from hybridoma of Harbour H2L2 mice: human variable regions, rat constant regions
B2: chimeric anti-PD-1 antibody 21G8F11 (antibody, V domains shown)
VH: EVQLLESGGGLAQPGGSLRLSCAASGFSFNTYLMHWVRQAPGKGLEWVSAISGGGGNTYYADSVKGRFTISRDNSKNTLYLQMNSLRAEDTAVYYCAKENRIPVAPFDYWGQGTLVTVSS
VL: DIQMTQSPSTLSASVGDRVTITCRASQSISTWLAWYQQKPGKAPKLLIYKASSLESGVPSRFSGSGSGTEFTLTISSLQPDDLATYYCQQYNSFSWTFGQGTKVEIK
notes: as for B1
B3: chimeric anti-PD-1 antibody 76G5B3 (antibody, V domains shown)
VH: QVQLVESGGGVVQPGRSLRLSCAASGFTFSDYGFHWVRQAPGKGLEWVAVIWYDGSNEYYTDSVKGRFTISRDNSKNTLYLQMNSLRAEDTAMYFCVVNPFDYWGQGTLVTVSS
VL: DIQMTQSPSSLSAFVGDRVTITCRASQGINHYLAWYQQKPGKAPNLLILAASTLLSGVPSRFGGRGSGTDFTLIISSLQPEDVATYYCQKYDSAPYTFGQGTKLEIK
notes: as for B1

These binders were tested against T4, human PD-1^ECD-hFc protein (Immunogen A) (human, UniProt Q15116 25-167) (assay: ELISA, coated human PD-1ECD-hFc; antibody 100 nM).
T4 construct: Biotinylated for the Octet assay; also called PD-1-hFc; hPD-1^ECD-hFc; not shown: human IgG Fc fragment (hFc)
T4 sequence (Q15116 25-167): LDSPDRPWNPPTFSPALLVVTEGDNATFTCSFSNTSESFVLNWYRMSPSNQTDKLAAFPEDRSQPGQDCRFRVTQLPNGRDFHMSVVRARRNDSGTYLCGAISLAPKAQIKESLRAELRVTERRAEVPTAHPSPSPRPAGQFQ
Method: (§1) 100 uL of the diluted recombinant proteins were added to each well of 96-well plate. The plates were sealed with plastic film and incubated at 4° C. overnight. The plates were washed twice with wash buffer (PBS+0.01% (v/v) Tween20), and incubated with blocking buffer (PBS+0.01% (v/v) Tween20+1% (w/w) BSA) at room temperature for 2 hours. The blocking buffer was aspirated away, and 100 uL of purified anti-PD-1 antibodies were added to each well and incubated for 2 hours at 37° C. The plates were washed three times with wash buffer (PBS+0.01% (v/v) Tween20). HRP-conjugated secondary antibody (Sigma) was added to each well and incubated for 2 hours at 37° C. After the plates were washed three times with wash buffer, 100 uL TMB substrate was added to each well and incubated for 30 minutes at room temperature. 100 uL stop solution (0.1N HCl) was added to each well to stop the reaction. The absorbance at 450 nm was measured with an ELISA plate reader (384plus SpectraMax, Molecular Devices).

Which OD450 nm does the source give for B1 here?
Its OD450 nm is 3.05.

With B2 as the binder, how does the OD450 nm read?
The OD450 nm was 2.73.

Which OD450 nm does the source give for B3 here?
The OD450 nm was 3.05.

What follows are binders tested against T5, full length human PD-1 on cells (human, UniProt Q15116 25-288) (assay: cell-based receptor-ligand blocking, flow cytometry: CHO-K1-hPD-1 cells, blocked ligand biotinylated PD-L1-Fc, streptavidin-Alexa 488).
T5 construct: Also used here for PD-1 on human T cells/PBMC; also called CHO-K1-hPD-1; hPD-1
T5 sequence (Q15116 25-288 limits assumed): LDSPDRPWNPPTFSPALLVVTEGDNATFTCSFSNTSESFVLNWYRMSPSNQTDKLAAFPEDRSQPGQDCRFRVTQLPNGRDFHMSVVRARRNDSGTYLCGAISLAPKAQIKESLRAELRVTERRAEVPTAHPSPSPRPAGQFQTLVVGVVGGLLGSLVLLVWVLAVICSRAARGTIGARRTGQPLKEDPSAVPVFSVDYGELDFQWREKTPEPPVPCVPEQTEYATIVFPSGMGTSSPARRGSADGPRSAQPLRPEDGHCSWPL
Method: CHO-K1-hPD-1 cells were cultured and expanded in T-75 culture flasks to 60-80% confluence. The culture media was aspirated, and the cells were washed twice with PBS. The cells were treated with TrypLE™ Express (Invitrogen) and collected. Trypsin was neutralized by the addition of 8 mL culture medium, and cell counts were determined. […] The cells were blocked for 15 minutes at 37° C. Meanwhile, the wells of 96-well round-bottom plates were blocked with 200 uL blocking buffer for 1 hour at 37° C. The blocking buffer was discarded, and 200 uL cells were dispensed to each well of the 96-well plates (2×10^5 cells/well). The plates were centrifuged at 500 g for 5 minutes, and the supernatants were discarded. The cells were resuspended in 100 uL antibody prepared in blocking buffer. […] The plates were incubated at 4° C. for 90 minutes and washed twice with 200 uL blocking buffer. […] The plates were washed three times with blocking buffer and resuspended in 200 uL blocking buffer. The mean fluorescence intensity (MFI) was determined using FACS Calibur (BD).

How did the “IC50 (read off the curve)” value turn out when B1 was run?
The value was ~6 nM.

B2 was tested. Which “IC50 (read off the curve)” value did it give?
Its value is ~6 nM.

B3 was tested. Which “IC50 (read off the curve)” value did it give?
The value was ~0.8 nM.

The binders below were run against T1, B7-1 (assay: ELISA on coated protein (Table 9)).
Method: as §1

Does B1 bind?
Result: no binding

Does B2 bind?
Result: no binding

Does B3 bind?
Result: no binding

What follows are binders tested against CD28 (human, UniProt P10747 19-152) (assay: ELISA on coated protein (Table 9)).
CD28, sequence (P10747 19-152 limits assumed): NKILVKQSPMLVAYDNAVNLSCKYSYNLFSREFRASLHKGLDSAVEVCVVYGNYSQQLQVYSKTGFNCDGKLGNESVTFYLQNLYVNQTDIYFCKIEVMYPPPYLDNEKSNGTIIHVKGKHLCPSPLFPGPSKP
Method: as §1

Does B1 bind?
Result: no binding

Does B2 bind?
Result: no binding

Does B3 bind?
Result: no binding

Each binder was assayed against T2, CTLA4 (assay: ELISA on coated protein (Table 9)).
Method: as §1

Does B1 bind?
Result: no binding

Does B2 bind?
Result: no binding

Does B3 bind?
Result: no binding

Each binder was assayed against T3, ICOS (assay: ELISA on coated protein (Table 9)).
Method: as §1

Does B1 bind?
Result: no binding

Does B2 bind?
Result: no binding

Does B3 bind?
Result: no binding

The binders below were run against T6, cyno PD-1^ECD-hFc protein (cyno monkey, UniProt B0LAJ3 25-167) (assay: ELISA, coated cyno PD-1ECD-hFc; antibody 0.01 nM).
T6 construct: Prepared by the method for Immunogen A; also called Cyno Monkey PD-1^ECD-hFc; cyno monkey PD-1-hFc; not shown: human IgG Fc fragment (hFc) and its junction to the ECD
T6 sequence (B0LAJ3 entry or part of it limits assumed): as the sequence (Q15116 25-167) above, with D2E, P10A, V19L, T35A, Q75R counted along it
Method: as §1

B1 was tested. Which OD450 nm did it give?
Its OD450 nm is 0.1.

Which OD450 nm does the source give for B2 here?
The OD450 nm was 0.27.

How did the OD450 nm turn out when B3 was run?
The OD450 nm was 0.14.

The binders below were run against T6, cyno PD-1^ECD-hFc protein (assay: ELISA, coated cyno PD-1ECD-hFc; antibody 1 nM).
Method: as §1

For B1, which OD450 nm is on record?
Its OD450 nm is 1.03.

Which OD450 nm does the source give for B2 here?
Its OD450 nm is 2.45.

B3 was tested. Which OD450 nm did it give?
Its OD450 nm is 1.4.

The binders below were run against T6, cyno PD-1^ECD-hFc protein (assay: ELISA, coated cyno PD-1ECD-hFc; antibody 0.1 nM).
Method: as §1

How did the OD450 nm turn out when B1 was run?
The OD450 nm was 0.29.

Which OD450 nm does the source give for B2 here?
Its OD450 nm is 0.972.

Which OD450 nm does the source give for B3 here?
Its OD450 nm is 0.56.

What follows are binders tested against T5, full length human PD-1 on cells (assay: flow cytometry, CHO-K1-hPD-1 cells; antibody 100 nM).
Description: CHO-K1 cells were stably transfected with pIRES plasmid containing the nucleic acid sequence encoding full length human PD-1 (see Example 2, step 2) to generate CHO-K1 cells stably expressing human PD-1 (herein referred to as CHO-K1-hPD-1 cells). Other CHO-K1 were stably transfected with pIRES plasmid containing the nucleic acid sequence encoding full length cyno PD-1 to generate CHO-K1 cells stably expressing cyno PD-1 (herein referred to as CHO-K1-cPD-1 cells). CHO-K1-hPD-1 and CHO-K1-cPD-1 cells were cultured and expanded in T-75 culture flasks to 90% confluence. The culture media was aspirated, and the cells were washed twice with HBSS (Hanks Balanced Salt Solution, Invitrogen). The cells were treated with enzyme-free cell dissociation solution (Versene solution, Invitrogen) and collected. The cells were then washed twice with HBSS, cell counts were determined, and cells were resuspended with HBSS at 2×10⁶ cells/mL. Goat serum was added to the cell suspension to a final concentration of 1%, and the cells were blocked for 30 minutes on ice and then washed twice with HBSS. The cells were collected after centrifugation and resuspended in FACS buffer (HBSS+1% BSA, v/v) at 2×10⁶ cells/mL. 100 uL of the cell suspension were then added to each well of 96-well plate. 100 uL of purified anti-PD-1 antibodies from Example 2 were added to each well of the 96-well plate and incubated for 2 hours on ice. […] The samples were washed three times with FACS buffer, and 100 uL fixation buffer (4% paraformaldehyde v/v) were added to each well and incubated for 10 minutes. The cells were then washed twice with FACS buffer and resuspended in 100 uL FACS buffer. The mean fluorescence intensity (MFI) was determined using FACS Calibur (BD), and the results are shown in FIGS. 7-8 and in Tables 10-11.

How did the Mean fluorescence intensity turn out when B1 was run?
Its Mean fluorescence intensity is 253.

For B2, which Mean fluorescence intensity is on record?
Its Mean fluorescence intensity is 661.

Which Mean fluorescence intensity does the source give for B3 here?
The Mean fluorescence intensity was 443.
